From US20130129739A1 (Bayer, published 2013)
Substitutions are numbered along the chain they refer to. “And” between values parts separate entries of the source, which are not always exact repeats. Equal entries are not always repeated.

T1: human prolactin receptor (PRLR) on cells (human, UniProt P16471 25-622)
T1 sequence (looked up): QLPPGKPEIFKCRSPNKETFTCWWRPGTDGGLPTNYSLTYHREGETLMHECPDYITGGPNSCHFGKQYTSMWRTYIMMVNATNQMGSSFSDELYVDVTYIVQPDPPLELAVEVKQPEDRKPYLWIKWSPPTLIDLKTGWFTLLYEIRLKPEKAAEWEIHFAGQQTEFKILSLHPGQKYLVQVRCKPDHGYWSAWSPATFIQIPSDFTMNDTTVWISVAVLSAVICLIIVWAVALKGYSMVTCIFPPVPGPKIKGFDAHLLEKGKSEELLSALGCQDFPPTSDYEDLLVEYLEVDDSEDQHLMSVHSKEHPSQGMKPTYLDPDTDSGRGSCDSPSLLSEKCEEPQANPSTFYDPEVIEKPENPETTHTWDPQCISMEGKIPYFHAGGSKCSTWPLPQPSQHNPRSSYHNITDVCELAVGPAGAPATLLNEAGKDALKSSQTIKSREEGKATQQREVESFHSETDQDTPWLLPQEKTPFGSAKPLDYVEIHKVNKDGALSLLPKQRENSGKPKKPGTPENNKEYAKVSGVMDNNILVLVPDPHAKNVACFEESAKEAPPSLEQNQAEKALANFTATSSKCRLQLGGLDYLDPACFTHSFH

T2: rat prolactin receptor (PRLR) on Nb2 lymphoma cells (rat, UniProt P05710 20-610)
T2 construct: whole, on cells; also called rat PRLR
T2 sequence (looked up): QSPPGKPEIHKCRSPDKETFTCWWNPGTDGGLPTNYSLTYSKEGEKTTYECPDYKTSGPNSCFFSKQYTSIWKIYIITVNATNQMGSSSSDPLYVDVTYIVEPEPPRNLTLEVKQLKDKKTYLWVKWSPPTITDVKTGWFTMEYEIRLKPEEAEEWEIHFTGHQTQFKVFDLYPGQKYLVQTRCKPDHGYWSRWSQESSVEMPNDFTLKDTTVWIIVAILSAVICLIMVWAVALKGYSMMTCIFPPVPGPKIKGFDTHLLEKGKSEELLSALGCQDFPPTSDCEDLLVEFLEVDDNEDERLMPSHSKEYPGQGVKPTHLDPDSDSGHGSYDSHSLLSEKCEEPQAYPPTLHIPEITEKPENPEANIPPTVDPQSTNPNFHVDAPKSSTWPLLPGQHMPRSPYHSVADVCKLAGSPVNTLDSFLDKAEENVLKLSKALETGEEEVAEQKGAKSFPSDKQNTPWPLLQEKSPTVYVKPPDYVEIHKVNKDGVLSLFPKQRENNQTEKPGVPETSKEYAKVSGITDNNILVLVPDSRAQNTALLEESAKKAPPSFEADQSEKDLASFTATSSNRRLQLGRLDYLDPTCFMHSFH

T3: extracellular domain of human PRLR (monomeric, soluble) (human, UniProt P16471 25-234)
T3 construct: also called ECD-PRLR; ECD of PRLR
T3 sequence: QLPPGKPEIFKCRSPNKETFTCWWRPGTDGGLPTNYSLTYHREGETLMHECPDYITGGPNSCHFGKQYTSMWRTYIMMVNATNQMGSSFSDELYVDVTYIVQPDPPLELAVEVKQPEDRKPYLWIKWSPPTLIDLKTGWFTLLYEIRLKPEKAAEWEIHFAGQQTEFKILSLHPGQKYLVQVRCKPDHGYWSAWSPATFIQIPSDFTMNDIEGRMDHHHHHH

B1: 002-H08 (antibody, V domains shown)
VH: QVELLESGGGLVQPGGSLRLSCAASGFTFSSYGMHWVRQAPGKGLEWVSGVSWNGSRTHYADSVKGRLTISRDNSKNTLYLQMNSLRAEDTAVYYCARGGDFDYWGQGTLVTVSS
VL: QSVLTQPPSASGTPGQRVTISCSGSSSNIGSNDVYWYQQLPGTAPKLLIYDNNKRPSGVPDRFSGSKSGTSASLAISGLRSEDEADYYCQSYDSSLSGSWVFGGGTKLTVLG
notes: Tested as human IgG1
B2: 005-C04 (antibody, V domains shown)
VH: EVQLLESGGGLVQPGGSLRLSCAASGFTFSSYWMHWVRQAPGKGLEWVSDISSASSYTNYADSVKGRFTISRDNSKNTLYLQMNSLRAEDTAVYYCARGLDARRMDYWGQGTLVTVSS
VL: QSVLTQPPSASGTPGQRVTISCTGSSSNIGAGYVVHWYQQLPGTAPKLLIYRNNQRPSGVPDRFSGSKSGTSASLAISGLRSEDEADYYCAAWDDSLNGWLFGGGTKLTVLG
notes: Tested as human IgG1; also called IgG1 005-C04; 005-004
B3: 006-H08 (antibody, V domains shown)
VH: not shown
VL: DIVLTQPPSASGTPGQRVTISCSGSNSNIGSNPVNWYQQLPGTAPKLLIYDNNKRPSGVPDRFSGSKSGTSASLAISGLRSEDEADYYCQSYDTGLSGWVFGGGTKLTVLG
notes: Tested as human IgG1; also called IgG1 006-H08
B4: 002-H06 (antibody, V domains shown)
VH: QVELLESGGGLVQPGGSLRLSCAASGFTFANYGLTWVRQAPGKGLEWVAVISFNGDKKYYADSVKGRFTISRDNSKNTLYLQMNSLRAEDTAVYYCASPLESPVAFDIWGQGTLVTVSS
VL: B3 VL with D1Q, I2S, N26Y, S31G, D51G, N53S, K54N, T94S, G95S, W99S
notes: Tested as human IgG1
B5: 002-H08 (Fab format) (Fab, V domains shown)
VH: B1 VH
VL: B1 VL
B6: 006-H08 (scFv format) (scFv, V domains shown)
VH: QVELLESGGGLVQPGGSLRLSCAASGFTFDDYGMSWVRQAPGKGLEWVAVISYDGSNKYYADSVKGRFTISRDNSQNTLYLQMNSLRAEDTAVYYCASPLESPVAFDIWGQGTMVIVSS
VL: B3 VL
B7: 002-H06 (Fab format) (Fab, V domains shown)
VH: B4 VH
VL: B3 VL with D1Q, I2S, N26Y, S31G, D51G, N53S, K54N, T94S, G95S, W99S
B8: 001-E06 (Fab format) (Fab, V domains shown)
VH: QVELLESGGGLVQPGGSLRLSCAASGFTFSSYWMSWVRQAPGKGLEWVSSVSDTGTDTHYADSVKGRFTISRDNSKNTLYLQMNSLRAEDTAVYYCAKTPLAYSSGWYYFDYWGQGTLVTVSS
VL: B3 VL with N26S, P33T, D51R, N53Y, K54Q, T94S, G95S, W99S
B9: 006-H07 (scFv format) (scFv, V domains shown)
VH: QVELLESGGGLVQPGGSLRLSCAASGFTFEDHGMSWVRQAPGKGLEWVSLISWDDGSNKYYADSVKGRFTISRDNSKNTLYLQMNSLRAEDTAVYYCATSLRATAFDTWGQGTLVTVSS
VL: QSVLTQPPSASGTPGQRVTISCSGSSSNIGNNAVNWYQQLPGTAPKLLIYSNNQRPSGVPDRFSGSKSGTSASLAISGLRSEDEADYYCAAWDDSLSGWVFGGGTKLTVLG
B10: XHA06.983 (antibody, V domains shown)
VH: DVQLVESGGGLVQPGGSRKLSCAASGFAFSSFGMQWVRQAPEKGLEWVAYISSGSSTIYYADTVKGRFTISRDNPKNTLFLQMTSLRSEDTAMYYCVRSGRDYWGQGTSVTVSS
VL: SIVMTQTPKFLLVSAGDRVTITCKASQGVSNDVAWFQQKPGQSPKLLIYSASTRYTGVPDRLTGSGYGTDFTFTINTVQAEDLAVYFCQQDYTSPTFGGGTKLEIKR
notes: Novartis antibody (WO2008/022295)
B11: 001-E06 (antibody, V domains shown)
VH: B8 VH
VL: B3 VL with N26S, P33T, D51R, N53Y, K54Q, T94S, G95S, W99S
notes: Tested as human IgG1
B12: 006-H07 (antibody, V domains shown)
VH: B9 VH
VL: not shown
notes: Tested as human IgG1
B13: 005-C04-48-1 (Fab, V domains shown)
VH: B2 VH with M34N, S53R, S117T
VL: B2 VL with A31Y
notes: Maturated 005-C04 variant; Fab in E. coli supernatant, flag-detected
B14: 005-C04-L2-1-48-3 (Fab, V domains shown)
VH: B2 VH with M34N, S53R, S56P, S117T
VL: B2 VL with P57Q
notes: as for B13
B15: 005-C04-L2-1-47-0 (Fab, V domains shown)
VH: B2 VH with M34N, S53R, A54L, S56P, S117T
VL: B2 VL with Q55W
notes: as for B13

molecular target: T1, human prolactin receptor (PRLR) on cells; test: cell-based or functional assay

IC50, inhibition of prolactin-activated Ba/F cell proliferation (human PRLR) | IC50, prolactin-activated luciferase reporter gene activity, HEK293 cells with hPRLR | Binder
4.8 nM and 0.72 µg/ml |  | B1
1.29 µg/ml and 8.6 nM |  | B2
0.15 µg/ml and 1 nM | 0.83 mg/ml and 5.5 nM | B3
0.54 µg/ml and 3.6 nM |  | B4

molecular target: T1, human prolactin receptor (PRLR) on cells; test: cell-based or functional assay; remark: another data set of the same source

Inhibition of phosphorylation of ERK1/2 in % at 7.5 µg/ml (ELISA, prolactin-treated T47D lysates) [%] | Inhibition of phosphorylation of PRLR in % at 7.5 µg/ml (ELISA, prolactin-treated T47D lysates) [%] | Inhibition of phosphorylation of STAT5 in % at 7.5 µg/ml (ELISA, prolactin-treated T47D lysates) [%] | Binder
100 | 100 | 98 | B5
100 | 100 | 100 | B6
86 | 92 | 72 | B7
45 | 63 | 36 | B8
85 | 88 | 73 | B9

molecular target: T2, rat prolactin receptor (PRLR) on Nb2 …; test: FACS on rat lymphoma cell line Nb2, IgG1

EC50 [nM] | binding result | Binder
0.5 |  | B2
 | no binding | B10
 | no binding | B3
1.2 |  | B11
 | no binding | B12

molecular target: T1, human prolactin receptor (PRLR) on cells; test: FACS on human breast cancer cell line T47D, IgG1

EC50 [nM] | Binder
1.9 | B2
0.3 | B10
1.3 | B3
1.8 | B11
0.4 | B12

molecular target: T3, extracellular domain of human PRLR …; test: SPR (Biacore), IgG1 directly immobilized, monomeric human PRLR ECD from HEK293 as analyte

Kd [nM] | koff [s⁻¹] | Binder
1.8 | 0.0002 | B1
12.2 | 0.0093 | B2
0.2 | 0.00017 | B10
0.7 | 0.00024 | B3
2.7 | 0.00054 | B4
15.8 | 0.0048 | B11
2 | 0.0013 | B12

molecular target: T3, extracellular domain of human PRLR …; test: ELISA: plate coated with human PRLR extracellular domain, Fab-containing E. coli supernatant, anti-flag-HRP, Amplex Red
Protocol: 96 well microtiter plates were coated with 1 μg per milliliter of human PRLR. Plates were incubated over night at 4° C. After blocking with PBS buffer containing 3% bovine serum albumin, normalized E. coli-derived supernatants containing the Fab variants were added. Detection of formed complexes occurred via the addition of an anti-flag antibody (Sigma, A8592) labeled with horseradish peroxidase.

binding result | Binder
binds | B13
binds | B14
binds | B15
